In article PMC9482650, “Quantitative fragmentomics allow affinity mapping of interactomes” (Nature Communications, 2022):

Columns and labels:
Assay in all cases: holdup assay
Design in all cases: key: below the threshold = too weak to quantify, mostly under pKd 3.1 to 4
[1] = molecular target: T1, CARD11, Q9BXL7
T1 sequence (Q9BXL7 662-765, limits assumed, looked up): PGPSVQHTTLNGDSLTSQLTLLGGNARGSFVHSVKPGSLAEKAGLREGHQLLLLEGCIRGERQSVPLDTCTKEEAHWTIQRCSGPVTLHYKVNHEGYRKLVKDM

[2] = molecular target: T2, DFNB31_1, Q9P202
T2 sequence (Q9P202 135-233, limits assumed, looked up): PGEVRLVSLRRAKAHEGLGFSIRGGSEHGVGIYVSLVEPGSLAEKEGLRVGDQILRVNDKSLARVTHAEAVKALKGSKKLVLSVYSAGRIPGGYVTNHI

[3] = molecular target: DLG4_2, P78352
[4] = molecular target: FRMPD2_2, Q68DX3
[5] = molecular target: FRMPD3, Q5JV73
[6] = molecular target: FRMPD4, Q14CM0
[7] = molecular target: GOPC, Q9HD26
[8] = molecular target: T3, GRIP1_2, Q9Y3R0
T3 sequence (Q9Y3R0 145-248, limits assumed, looked up): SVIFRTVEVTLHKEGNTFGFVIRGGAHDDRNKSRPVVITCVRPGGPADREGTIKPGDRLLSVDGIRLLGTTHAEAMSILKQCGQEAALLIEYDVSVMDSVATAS

[9] = molecular target: T4, GRIP1_7, Q9Y3R0
T4 sequence (Q9Y3R0 999-1096, limits assumed, looked up): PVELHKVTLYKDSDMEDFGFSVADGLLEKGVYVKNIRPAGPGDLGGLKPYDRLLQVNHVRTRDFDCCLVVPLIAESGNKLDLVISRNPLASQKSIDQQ

[10] = molecular target: GRIP2_6, Q9C0E4
[11] = molecular target: HTRA2, O43464
[12] = molecular target: IL16_1, Q14005
[13] = molecular target: Inadl_2, Q8NI35
[14] = molecular target: Inadl_4, Q8NI35
[15] = molecular target: LDB3, O75112
[16] = molecular target: T5, LRRC7, Q96NW7
T5 sequence (Q96NW7 1440-1537, limits assumed, looked up): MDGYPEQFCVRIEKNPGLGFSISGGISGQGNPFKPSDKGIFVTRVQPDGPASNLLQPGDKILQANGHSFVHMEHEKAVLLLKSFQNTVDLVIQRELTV

[17] = molecular target: MAGI2_5, Q86UL8
[18] = molecular target: MAGI3_2, Q5TCQ9
[19] = molecular target: MAST1, Q9Y2H9
[20] = molecular target: T6, MPDZ_10, O75970
T6 sequence (O75970 1624-1722, limits assumed, looked up): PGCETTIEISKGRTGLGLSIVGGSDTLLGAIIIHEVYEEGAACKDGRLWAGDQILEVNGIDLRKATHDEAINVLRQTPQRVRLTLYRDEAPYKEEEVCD

[21] = molecular target: T7, MPDZ_5, O75970
T7 sequence (O75970 695-796, limits assumed, looked up): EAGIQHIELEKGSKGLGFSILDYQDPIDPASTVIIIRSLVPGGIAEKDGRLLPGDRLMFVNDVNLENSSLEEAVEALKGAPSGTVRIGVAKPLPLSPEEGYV

[22] = molecular target: T8, MPP6, Q9NZW5
T8 sequence (Q9NZW5 125-219, limits assumed, looked up): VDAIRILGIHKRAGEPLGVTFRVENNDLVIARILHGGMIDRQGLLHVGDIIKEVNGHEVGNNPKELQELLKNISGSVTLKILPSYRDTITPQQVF

[23] = molecular target: T9, MPP7, Q5T2T1
T9 sequence (Q5T2T1 134-230, limits assumed, looked up): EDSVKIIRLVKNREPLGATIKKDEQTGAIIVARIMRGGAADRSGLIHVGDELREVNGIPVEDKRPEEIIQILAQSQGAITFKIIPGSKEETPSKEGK

[24] = molecular target: NHERF4_1, Q86UT5-2
[25] = molecular target: T10, RADIL, Q96JH8
T10 sequence (Q96JH8 971-1071, limits assumed, looked up): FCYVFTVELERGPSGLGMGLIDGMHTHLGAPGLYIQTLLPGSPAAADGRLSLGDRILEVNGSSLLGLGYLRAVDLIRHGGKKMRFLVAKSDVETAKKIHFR

[26] = molecular target: T11, RAPGEF6, Q8TEU7
T11 sequence (Q8TEU7 525-625, limits assumed, looked up): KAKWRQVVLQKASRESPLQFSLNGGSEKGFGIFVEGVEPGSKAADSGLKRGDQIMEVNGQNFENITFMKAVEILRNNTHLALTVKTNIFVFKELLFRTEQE

[27] = plain residues with an end cap or a label only (N-terminal biotin on a linker: (peg)3)
[28] = plain residues with an end cap or a label only (N-terminal biotin on a linker: ado-ado)

Measured: pKd

Chain of MAGI2_5, Q86UL8 (Q86UL8 915-1017): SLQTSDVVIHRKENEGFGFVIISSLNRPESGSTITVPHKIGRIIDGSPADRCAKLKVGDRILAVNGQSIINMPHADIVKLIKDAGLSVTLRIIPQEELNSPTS
Chain of DLG4_2, P78352 (P78352 155-259): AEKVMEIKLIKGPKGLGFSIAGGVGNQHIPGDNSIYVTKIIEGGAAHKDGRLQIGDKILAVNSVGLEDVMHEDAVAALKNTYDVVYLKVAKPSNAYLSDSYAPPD
Chain of NHERF4_1, Q86UT5-2 (Q86UT5 other isoform, or with tags, fused parts or gaps): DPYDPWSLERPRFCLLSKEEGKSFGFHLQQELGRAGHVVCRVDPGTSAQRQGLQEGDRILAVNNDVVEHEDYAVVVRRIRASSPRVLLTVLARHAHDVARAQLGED
Chain of HTRA2, O43464 (O43464 355-458): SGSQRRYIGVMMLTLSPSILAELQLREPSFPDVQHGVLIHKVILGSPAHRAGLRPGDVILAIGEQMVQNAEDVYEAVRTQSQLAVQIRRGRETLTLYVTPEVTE
Chain of GRIP2_6, Q9C0E4 (Q9C0E4 648-740): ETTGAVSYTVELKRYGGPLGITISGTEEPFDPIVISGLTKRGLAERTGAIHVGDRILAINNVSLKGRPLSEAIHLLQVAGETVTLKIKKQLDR
Chain of MAST1, Q9Y2H9 (Q9Y2H9 962-1065): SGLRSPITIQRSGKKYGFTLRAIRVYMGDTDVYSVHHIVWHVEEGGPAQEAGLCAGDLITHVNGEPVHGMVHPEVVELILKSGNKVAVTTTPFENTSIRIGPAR
Chain of LDB3, O75112 (O75112 1-94): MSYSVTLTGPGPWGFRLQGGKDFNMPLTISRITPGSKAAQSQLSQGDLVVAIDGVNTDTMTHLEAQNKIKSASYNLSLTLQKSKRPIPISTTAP
Chain of MAGI3_2, Q5TCQ9 (Q5TCQ9 398-503): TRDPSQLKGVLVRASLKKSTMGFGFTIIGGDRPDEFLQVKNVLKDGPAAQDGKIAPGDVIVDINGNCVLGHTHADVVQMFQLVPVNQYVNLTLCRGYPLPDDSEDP
Chain of FRMPD2_2, Q68DX3 (Q68DX3 944-1038): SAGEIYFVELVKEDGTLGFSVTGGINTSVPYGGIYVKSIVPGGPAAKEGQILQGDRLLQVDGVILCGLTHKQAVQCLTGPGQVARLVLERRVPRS
Chain of FRMPD4, Q14CM0 (Q14CM0 67-160): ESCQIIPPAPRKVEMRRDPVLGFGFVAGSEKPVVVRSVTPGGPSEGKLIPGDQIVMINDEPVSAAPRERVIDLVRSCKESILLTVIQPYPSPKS
Chain of Inadl_2, Q8NI35 (Q8NI35 238-335): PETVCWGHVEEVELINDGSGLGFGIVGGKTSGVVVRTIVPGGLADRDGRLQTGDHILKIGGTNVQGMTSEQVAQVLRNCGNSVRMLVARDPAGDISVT
Chain of FRMPD3, Q5JV73 (Q5JV73 12-100): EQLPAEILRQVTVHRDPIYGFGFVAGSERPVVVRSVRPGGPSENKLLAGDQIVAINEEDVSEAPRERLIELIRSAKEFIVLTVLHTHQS
Chain of Inadl_4, Q8NI35 (Q8NI35 547-651): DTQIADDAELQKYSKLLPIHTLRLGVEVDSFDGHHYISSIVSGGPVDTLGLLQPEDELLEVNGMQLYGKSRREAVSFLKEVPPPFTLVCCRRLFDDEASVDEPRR
Chain of IL16_1, Q14005 (Q14005 210-306): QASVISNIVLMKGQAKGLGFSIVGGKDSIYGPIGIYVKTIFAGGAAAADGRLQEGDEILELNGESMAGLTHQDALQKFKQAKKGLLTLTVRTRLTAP

B1: SARS-CoV-E, P59637 (peptide)
chain: NLNSSEGVPDLLV
4.04: [9]; [27]
below the threshold: [1]; [27] | [2]; [27] | [3]; [27] | [4]; [27] | [5]; [27] | [6]; [27] | [7]; [27] | [8]; [27] | [10]; [27] | [11]; [27] | [12]; [27] | [13]; [27] | [14]; [27] | [15]; [27] | [16]; [27] | [17]; [27] | [18]; [27] | [20]; [27] | [21]; [27] | [22]; [27] | [23]; [27] | [24]; [27] | [25]; [27] | [26]; [27]
3.79: [19]; [27]

B2: CES3, Q6UWW8 (peptide)
chain: QKNRKAQEDL
3.5: [1]; [28]
below the threshold: [2]; [28] | [3]; [28] | [4]; [28] | [5]; [28] | [6]; [28] | [7]; [28] | [8]; [28] | [9]; [28] | [10]; [28] | [11]; [28] | [12]; [28] | [13]; [28] | [14]; [28] | [15]; [28] | [16]; [28] | [17]; [28] | [18]; [28] | [19]; [28] | [20]; [28] | [21]; [28] | [22]; [28] | [24]; [28] | [25]; [28] | [26]; [28]
3.61: [23]; [28]
